Tests used:
SH-SY5Y neuronal cells [1] = experiment: Annexin-V staining of apoptotic cells against MPP+ iodide damage; format: cell-based, human; settings: MPP+ iodide 1 mM; for % Decrease in Apoptotic cells (wrt MPP + iodide): Annexin
Experimental: After 24 h of treatment, cells were exposed to damage (MPP+ iodide 1 mM) for 24 h. […] Untreated cells were included as control. Cells treated with Deprenyl served as positive control. After treatment, cells were harvested by trypsinization and processed for Annexin V assay as follows: Cell were gently harvested into pre-labeled sterile centrifuge tubes and centrifuged at 300×g for 5-7 min. After 24 h of treatment, cells were exposed to damage (MPP+ iodide 1 mM) for 24 h. Cells treated with MPP+ iodide alone were included as Control. Untreated cells were included as negative control. Cells treated with Deprenyl served as positive control. After treatment, cells were harvested by trypsinization and processed for Annexin V assay as follows: Cell were gently harvested into pre-labelled sterile centrifuge tubes and centrifuged at 300×g for 5-7 min. Supernatant were discarded and the pellet was resuspended in 200 μl of fresh culture medium. 100 μl of cell suspension was transferred into pre-labeled sterile centrifuge tubes. 100 μl of Annexin-V reagent was added to each tube and incubated for 30 min at RT in dark. Cells stained for Annexin-V were then transferred into 96-well plates and acquired on flow cytometer (Guava technologies). Percentage of Annexin-V positive cells was determined.
Percent inhibition in apoptotic cells=[(% Annexin positive cells in MPP+iodide alone)−(% Annexin positive cells in Recombinant Lectin having SEQ ID NO:1+MPP+iodide)/% Annexin positive cells in MPP+iodide alone]*100

SH-SY5Y neuronal cells [2] = experiment: Sub (G0/G1) cell population by PI cell cycle assay against MPP+ iodide damage; format: cell-based, human; settings: MPP + Iodide (2 mM); for % Decrease in Apoptotic cells (wrt MPP + iodide): SubG0/G1
Experimental: After incubation as in Example 2a and 2b, cells were harvested by trypsinization and processed for Cell cycle assay as follows: Cell cycle reagent contains PI stain, which stains DNA of cells in different phases of cell cycle; Sub (G0/G1), G1, S, G2 and M. Cells in Sub (G0/G1) phase correspond to apoptotic cells.
Cells were gently harvested into pre-labelled centrifuge tubes and centrifuged at 450 g for 5 min, RT (low brake). The supernatants were removed carefully and discarded. 1 ml of 1×PBS was added to the pellet and resuspended gently to make homogenous suspension. Cells were centrifuged at 450 g for 5 min, RT (low brake). The supernatant was carefully removed leaving behind approximately 100 μl of PBS. Cells were resuspended gently yet thoroughly in residual PBS. The cells were fixed by adding Ice-cold 70% ethanol (100 μl) added dropwise into cells in each tube while vortexing at low speed Cells were stored at 4° C. for 24 h prior to staining.
Ethanol fixed cells were centrifuged at 450 g for 5 min, RT (low brake) the supernatant was carefully removed (not to touch the pellet) and discarded. 1 ml of 1×PBS was added into pellet and resuspended gently. Cells were incubated for 1 minute at RT. Cells were centrifuged at 450 g for 5 min, RT (low brake). (washing step) The supernatant was removed carefully leaving behind approx. 20 μl-50 μl of PBS. 200 μl of Cell Cycle reagent was added into each tube. Cells were resuspended gently and mixed. Cells were incubated for 30 min, RT, Dark. The stained samples were transferred into 96-well plates and acquired on flow cytometer (Guava technologies). Percentage of cells in Sub (G0/G1) phase were determined.
Percent inhibition in apoptotic cells=[(% Sub(G0/G1)cells in MPP+iodide alone) −(% Sub(G0/G1)cells in SEQ ID NO:1+MPP+iodide)/% Sub(G0/G1)cells in MPP+iodide alone]*100

neuronal cells (pc12) = experiment: Neurite formation, basal model; format: cell-based, rat
Experimental: Cells were counted using haemocytometer and plated in 24-well plates at the densities corresponding to 1×10^4 cells/well/500 μl of the growth medium. The cells were then incubated for 48 h in 5% CO2 incubator at 37° C. Effect of Recombinant Lectin having SEQ ID NO: 1 on neurite formation was evaluated in both basal and MPP+ damage induced model.
For basal model the percent increase in neurite formation was determined as follows

RAGE = experiment: Alzheimer's biomarker multiplex analysis, scopolamine-damaged SH-SY5Y; format: cell-based, human; settings: Scopolamine (4 mM)
Experimental: After overnight incubation as in the previous examples, cells were treated with recombinant lectin protein having SEQ ID NO: 1 at different concentrations ranging from 0.001 μg/ml-1 μg/ml for 24 h for Parkinson disease and 0.01 μg/ml-25 μg/ml for 24 h for Alzheimer's disease. • Parkinson Disease: After 24 h of pre-treatment with recombinant lectin protein having SEQ ID NO: 1, cells were exposed (MPP+) for another 24 h. Cells treated with MPP+Iodide were included as Control. […] The cells treated with Galantamine were included as positive Control.
The levels of markers were determined by multiplex analysis as: Cell culture supernatants were diluted (1:2) with Calibrator Diluent. 50 μl of standard or sample was added per well. 50 μl of the microparticle cocktail was added to each well of the microplate and covered with a foil plate sealer. The plate was incubated for 2 hours at room temperature on a horizontal orbital microplate shaker. The plate was washed using a magnetic device designed to accommodate a microplate. Washing was done by applying the magnet to the bottom of the microplate, allowing 1 minute before removing the liquid, filling each well with wash buffer (100 μl) and allowing 1 minute before removing the liquid again. 50 μl of diluted Biotin-Antibody Cocktail was added to each well. Covered the plate with a foil plate sealer and incubated for 1 hour at room temperature on the shaker. Repeated the wash step. 50 μl of diluted Streptavidin-PE was added to each well. The plate was securely covered with a foil plate sealer and incubated for 30 minutes at room temperature on the shaker. Repeated the wash step. The microparticles were resuspended by adding 100 μl of Wash Buffer to each well. The plate was incubated for 2 minutes on the shaker and read within 90 minutes using Magpix® multiplex machine. Levels of biomarkers for Parkinson's and Alzheimer's disease were estimated using Magpix® multiplex machine.
For Alzheimer's disease the percent modulation in each sample was determined as follows: […]

B1: SEQ ID NO: 1: variant of the S. rolfsii lectin amino acid sequence (reported as Rec-2 in WO2010/095143) (protein)
chain: TYKITVRVYQTNPDAFFHPVEKTVWKYANGGTWTITDDQHVLTMGGSGTSGTLRFHADNGESFTATFGVHNYKRWCDIVTNLAADETGMVINQQYYSQKNREEARERQLSNYQVKNAKGRNFQIVYTEAEGNDLHANLIIG
In the case of B1, the “% Apoptotic cells (Anenxin + ve)” value (SH-SY5Y neuronal cells [1]; 0.001 μg/mL) is reported as 1.8%, the “% Decrease in Apoptotic cells (wrt MPP + iodide)” value (“% Decrease in Apoptotic cells” for short) (SH-SY5Y neuronal cells [1]; 0.001 μg/mL) is reported as 56.8% and the “% Apoptotic cells (Anenxin + ve)” value (SH-SY5Y neuronal cells [1]; 0.01 μg/mL) is reported as 1.2%. The “% Decrease in Apoptotic cells” value (SH-SY5Y neuronal cells [1]; 0.01 μg/mL) was 70.4%, the “% Apoptotic cells (Anenxin + ve)” value (SH-SY5Y neuronal cells [1]; 0.05 μg/mL) was 2.6% and the “% Decrease in Apoptotic cells” value (SH-SY5Y neuronal cells [1]; 0.05 μg/mL) was 35.8%. For the same molecule, the “% Apoptotic cells (Anenxin + ve)” value (SH-SY5Y neuronal cells [1]; 0.1 μg/mL) was 3.1%, the “% Decrease in Apoptotic cells” value (SH-SY5Y neuronal cells [1]; 0.1 μg/mL) was 23.5% and the “% Apoptotic cells (Anenxin + ve)” value (SH-SY5Y neuronal cells [1]; 1 μg/mL) was 2.3%. For the same molecule, the “% Decrease in Apoptotic cells” value (SH-SY5Y neuronal cells [1]; 1 μg/mL) was 43.2%, the “% Apoptotic cells (SubG0/G1)” value (SH-SY5Y neuronal cells [2]; 0.001 μg/mL) was 2.7% and the “% Decrease in Apoptotic cells” value (SH-SY5Y neuronal cells [2]; 0.001 μg/mL) was 18.8%. For the same molecule, the “% Apoptotic cells (SubG0/G1)” value (SH-SY5Y neuronal cells [2]; 0.01 μg/mL) was 2.2%, the “% Decrease in Apoptotic cells” value (SH-SY5Y neuronal cells [2]; 0.01 μg/mL) was 33.5% and the “% Apoptotic cells (SubG0/G1)” value (SH-SY5Y neuronal cells [2]; 0.05 μg/mL) was 2.4%. For the same molecule, the “% Decrease in Apoptotic cells” value (SH-SY5Y neuronal cells [2]; 0.05 μg/mL) was 29.9%, the “% Apoptotic cells (SubG0/G1)” value (SH-SY5Y neuronal cells [2]; 0.1 μg/mL) was 2.4% and the “% Decrease in Apoptotic cells” value (SH-SY5Y neuronal cells [2]; 0.1 μg/mL) was 27.7%. The “% Apoptotic cells (SubG0/G1)” value (SH-SY5Y neuronal cells [2]; 1 μg/mL) was 2.2%, the “% Decrease in Apoptotic cells” value (SH-SY5Y neuronal cells [2]; 1 μg/mL) was 35% and the “% Protection in the formation of Neurites (w.r.t. MPP+)” value (“% Protection in the formation” below) (neuronal cells (pc12); 0.001 μg/ml) was 54.7%. For the same molecule, the “Average No. of Neurites” value (neuronal cells (pc12); 0.001 μg/ml) was 27, the “% Protection in the formation” value (neuronal cells (pc12); 0.01 μg/ml) was 47.2% and the “Average No. of Neurites” value (neuronal cells (pc12); 0.01 μg/ml) was 26. The “% Protection in the formation” value (neuronal cells (pc12); 0.1 μg/ml) was 18.9%, the “Average No. of Neurites” value (neuronal cells (pc12); 0.1 μg/ml) was 21 and the “% Protection in the formation” value (neuronal cells (pc12); 5 μg/ml) was 34%. For the same molecule, the “Average No. of Neurites” value (neuronal cells (pc12); 5 μg/ml) was 24, the “% Change of Biomarkers markers (wrt Control) RAGE” value (from here on “% Change of Biomarkers markers”) (RAGE; 0.01 μg/mL) was −19.3% and the “% Change of Biomarkers markers” value (RAGE; 0.1 μg/mL) was 0%. The “% Change of Biomarkers markers” value (RAGE; 1 μg/mL) was −19.3%, the “% Change of Biomarkers markers” value (RAGE; 10 μg/mL) was 16.3% and the “% Change of Biomarkers markers” value (RAGE; 25 μg/mL) was −3%.

Reference: patent US20240398899A1 (priority 2021, published 2024)
